From patent publication US20250026838A1

How the values were obtained:
[1] = molecular target: Human Galectin-3 (Gal3) protein (human) (UniProt P17931); assay: competition ELISA, hGal3 coated; competitor: biotinylated aggregated alpha-synuclein
[2] = molecular target: Human Galectin-3 (Gal3) protein (human) (UniProt P17931); assay: competition ELISA, hGal3 coated; competitor: biotinylated aggregated phospho-tau

Chain of Human Galectin-3 (Gal3) protein (human) (P17931 whole entry): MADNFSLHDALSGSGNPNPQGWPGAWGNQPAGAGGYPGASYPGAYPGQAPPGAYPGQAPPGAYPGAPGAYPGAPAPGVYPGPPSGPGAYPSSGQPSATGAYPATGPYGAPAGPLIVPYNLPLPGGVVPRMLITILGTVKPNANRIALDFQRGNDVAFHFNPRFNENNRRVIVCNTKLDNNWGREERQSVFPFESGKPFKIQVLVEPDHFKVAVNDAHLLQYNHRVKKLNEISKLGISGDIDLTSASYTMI

Row | blocking efficacy [1] | blocking efficacy [2] | Binder
1 | > 70% |  | 846.1H5-hIgG4(S228P) (antibody, V domains shown) VH: EVQLLESGGGLVKPGGSLKLSCAASGFTFSSYAMSWVRQTPEKRLEWVASISSGGDTYYPDSVKGRFTISRDNARNILYLQMSSLRSEDTAMYYCASYGNSLFDYWGQGTTLTVSS VL: DVVMTQTPLSLPVSLGDQASISCRSSQSLVHNSGNTYLHWYLQRPGQSPNLLIYKVSNRFSGVPDRFSGSGSGTDFTLKISRVAAEDLGVYFCSQSTHVPPTFGGGTKLEIKR
2 | > 70% | > 70% | 846.1B2-hIgG4(S228P) (antibody, V domains shown) VH: QIQLVQSGPELKKPGETVKISCKASGYTFTNYGMNWVKQAPGKGLKWMGWINTYTGEPSYADDFKGRFAFSLETSASTAYLQINNLKNEDMATYFCARWGGYAGDYYAMDFWGQGTSVTVSS VL: NIWLTQSPSSLAVSAGEMVTMTCKSSQSVLYSSNQKNYLAWYQQKPGQSPKLLIYWASTRESGVPDRFTGSGSGTDFSLTISSVQAEDLAVYYCHQYLSSLTFGAGTKLELKR
3 | > 70% | > 70% | 2D10-VH0-VL0-hIgG4(S228P) (antibody, V domains shown) VH: QFQLQQSGPELVKPGASVKISCKASGYTFTDYYINWVKQRPGQGLEWIGWIYPGSNDTKYNEKFKGKATLTVDTSSSTAYMQLGSLTSEDSAVYFCANYFGCSGWFFDVWGTGTTVTVSS VL: DIVMTQAAFSNPVTLGTSASISCRSSKSLLHSDGITYLYWYLQRPGQSPQLLIYRMSNLASGVPDRFSGSGSGTDFTLRISRVEAEDVGVYYCAQMIEFPLTFGAGTILELKR
